Results reported in publication PMC6494689.

Columns and labels:
[1] = biological target: BbRAG1L NBD* domain (purified NBD* protein) (Branchiostoma belcheri); experiment: SEC-MALS
[2] = biological target: MBP-tagged core BbRAG1L (cBbRAG1L; aa 468-1136) (Branchiostoma belcheri); experiment: SEC-MALS

Row | stoichiometry N [1] | stoichiometry N (BbRAG2L per cBbRAG1L (2:2)) [2] | Substance
1 | 2 | – | BbRAG1L NBD* domain (purified NBD* protein) (domain or fragment)
2 | – | 1 | MBP-tagged full length BbRAG2L (natural protein)
